# Data from patent US6740739B1, “Substitutional variants of APO-2 ligand” (Genentech, Inc., priority 1998, dated 2004).
# B1: Apo-2L: purified soluble His10-tagged human Apo-2 ligand, residues 114-281, from baculovirus-infected Sf9 cells (Example 3); used in Examples 4-14 (protein)
# chain: MGHHHHHHHHHHSSGHIDDDDKHMVRERGPQRVAAHITGTRGRSNTLSSPNSKNEKALGRKINSWESSRSGHSFLSNLHLRNGELVIHEKGFYYIYSQTYFRFQEEIKENTKNDKQMVQYIYKYTSYPDPILLMKSARNSCWSKDAEYGLYSIYQGGIFELKENDRIFVSVTNEHLIDMDHEASFFGAFLVG
# Experiments:
# [1] = system: HCT116 human colon carcinoma cells; experiment: Tumor volume in nude mice, osmotic mini-pump infusion; format: in vivo; conditions: E. coli-expressed Apo-2 ligand (aa 91-281/92-281) 10 mg/kg each day by intraperitoneal osmotic mini-pump; over 3 days; vehicle no change; FIG. 15
# Protocol: In the experiment, the nude mice were injected subcutaneously with HCT116 human colon carcinoma cells (ATCC CCL 247) (1×10^6 cells) on each side of the animal. The tumors were then allowed to grow to reach approximately 1 cm diameter (approximately 10 days). On Day 0, the tumor volume was measured with calipers. Volume was calculated as π/6×ab^2, where a=length and b=width. Then osmotic mini-pumps (available from Alza Corp., Model 1003) were implanted intraperitoncally into each animal. The mini-pumps were loaded with either (1) control vehicle (20 mM Tris pH 7.5, 8% Trehalose. 0.01% Tween-20) or (2) Apo-2 ligand. Five animals in each group received either the control vehicle or Apo-2 ligand. The mini-pumps were calibrated to deliver each day 10 mg/kg Apo-2 ligand (10 mg/ml×2 μl/hour) or 2 μl/hour control vehicle.
# On Day 3, the tumor volume was again measured, and the animals were sacrificed. […] There was no change in tumor volume in the vehicle group, but a marked reduction in tumor size occurred in mice infused with the Apo-2L. The treatment with the Apo-2L shrunk the tumors by about 50% over 3 days.
# 293 = experiment: Apoptosis by FACS, non-lymphoid tumor cell lines; format: cell-based, human; conditions: Apo-2 ligand 3 μg/ml, 24 hours, control 12.3
# Protocol: (§1) The effects of the Apo-2 ligand on the 9D cells, as well as on Raji cells (human Burkitt's lymphoma B cell line, ATCC CCL 86) and Jurkat cells (human acute T cell leukemia cell line, ATCC TIB 152) were further analyzed by FACS. The FACS analysis was conducted, using established criteria for apoptotic cell death, namely, the relation of fluorescence staining of the cells with two markers: (a) propidium iodide (“PI”) dye, which stains apoptotic but not live cells, and (b) a fluorescent derivative of the protein, annexin V, which binds to the exposed phosphatidylserine found on the surface of apoptotic cells, but not on live cells [Darzynkiewicz et al., Methods in Cell Biol., 41:15-38 (1994); Fadok et al., J. Immunol., 148:2207-2216 (1992); Koopman et al., Blood, 84:1415-1420 (1994)].
# (§2) The 9D cells (FIG. 2B), Raji cells (FIG. 2C), and Jurkat cells (FIG. 2D) were incubated (1×10^6 cells/well) for 24 hours with a media control (left panels), Apo-2 ligand (3 μg/ml, prepared as described in Example 3) (center panels), or anti-Apo-1 ligand antibody, CH11 (1 μg/ml) (right panels). The cells were then washed, stained with PI and with fluorescein thiocyanate (FITC)-conjugatedannexin V (purchased from Brand Applications) and analyzed by flow cytometry. Cells negative for both PI and annexin V staining (quadrant 3) represent live cells; PI-negative, annexin V-positive staining cells (quadrant 4) represent early apoptotic cells; PI-positive, annexin V-positive staining cells (quadrant 2) represent primarily cells in late stages of apoptosis.
# (§3) The effect of Apo-2 ligand on human non-lymphoid tumor cell lines was examined using the following cell lines: HeLa (derived from human cervical carcinoma, ATCC CCL 22); ME-180 (derived from human cervical carcinoma, ATCC HTB 33); MCF7 (derived from human breast carcinoma, ATCC HTB 22); U-937 (derived from human hystiocytic lymphoma, ATCC CRL 1593); A549 (derived from human lung carcinoma, ATCC CCL 185); and 293 (derived from an adenovirus-transformed human embryonic kidney cells, ATCC CCL 1573).
# (§4) In the assay, 1×10^6 cells of each cell line were incubated for 24 hours with a media control, Apo-2 ligand (3 μg/ml, prepared as described in Example 3), or anti-Apo-1 monoclonal antibody, CH 11 (1 μg/m1). Following the incubation, apoptosis was measured by FACS analysis, as described in Example 4.
# HeLa = experiment: Apoptosis by FACS, non-lymphoid tumor cell lines; format: cell-based, human; conditions: Apo-2 ligand 3 μg/ml, 24 hours, control 5.3
# Protocol: as §1, §2, §3, §4
# A549 [2] = experiment: Apoptosis by FACS, non-lymphoid tumor cell lines; format: cell-based, human; conditions: Apo-2 ligand 3 μg/ml, 24 hours, control 16.5
# Protocol: as §1, §2, §3, §4
# ME-180 = experiment: Apoptosis by FACS, non-lymphoid tumor cell lines; format: cell-based, human; conditions: Apo-2 ligand 3 μg/ml, 24 hours, control 8.6
# Protocol: as §1, §2, §3, §4
# U-937 = experiment: Apoptosis by FACS, non-lymphoid tumor cell lines; format: cell-based, human; conditions: Apo-2 ligand 3 μg/ml, 24 hours, control 3.6
# Protocol: as §1, §2, §3, §4
# MCF7 = experiment: Apoptosis by FACS, non-lymphoid tumor cell lines; format: cell-based, human; conditions: Apo-2 ligand 3 μg/ml, 24 hours, control 39.9
# Protocol: as §1, §2, §3, §4
# A549 [3] = format: cell-based, human
# Protocol: (§5) The following human tumor cell lines were assayed: A549 (lung carcinoma, ATCC CCL 185); HCT116 (colon carcinoma, ATCC CCL 247); SW480 (colon adenocarcinoma, ATCC CCL 228); MDA231 (breast adenocarcinoma, ATCC HTB 26); HeLa (cervical carcinoma, ATCC CCL 22); ME-180 (cervical carcinoma, ATCC HTB 33); T24 (bladder carcinoma. ATCC HTB 4); SK-N-AS (neuroblastoma, White et al., Proc. Natl. Acad. Sci., 92:5520-5524 (1995)). The cells were plated at 2.5×10^5 cells/ml in 96 well plates and incubated overnight. The cells were cultured in the presence of 2-fold dilutions of Apo-2 ligand (ranging from 100 ng/ml to 0.01 ng/ml). In some of the cultures, a chemotherapeuticagent was also added for 24 hours-cyclohexamide (“CHX”) (50 μg/ml; Sigma Chemicals), Doxorubicin (10-100 μg/ml; Pharmacia), or 5-FU (6 mg/ml; Roche). After 24 hours of incubation, the cells were stained with 0.5% crystal-violetin 20% methanol. Cell viability was determined by eluting the dye from the stained cells with 0.1M sodium citrate (0.1M citric acid in 50% methanol), and measuring absorbance at 540 nm.
# MDA231 = format: cell-based, human
# Protocol: as §5
# HCT116 = format: cell-based, human
# Protocol: as §5
# Jurkat cells = experiment: Apoptosis by FACS (PI / FITC-annexin V); format: cell-based, human; conditions: Apo-2 ligand 3 μg/ml, 24 hours, control 5.9
# Protocol: as §1
# (§6) The 9D cells (FIG. 2B), Raji cells (FIG. 2C), and Jurkat cells (FIG. 2D) were incubated (1×10^6 cells/well) for 24 hours with a media control (left panels), Apo-2 ligand (3 μg/ml, prepared as described in Example 3) (center panels), or anti-Apo-1 ligand antibody, CH11 (1 μg/ml) (right panels). The cells were then washed, stained with PI and with fluorescein thiocyanate (FITC)-conjugatedannexin V (purchased from Brand Applications) and analyzed by flow cytometry. […]
# Raji cells = experiment: Apoptosis by FACS (PI / FITC-annexin V); format: cell-based, human; conditions: Apo-2 ligand 3 μg/ml, 24 hours, control 35.9
# Protocol: as §1, §6
molecule,measurement,setting,value
B1,shrinkage of tumors (change in tumor volume),[1],about 50%
same,% apoptotic cells,293,12.2%
same,% apoptotic cells,HeLa,18.6%
same,% apoptotic cells,A549 [2],74.6%
same,% apoptotic cells,ME-180,80.7%
same,% apoptotic cells,U-937,62.3%
same,% apoptotic cells,MCF7,47.3%
same,Apo-2L sensitivity ENHANCED BY 5-FU,A549 [3],yes
same,Apo-2L sensitivity ENHANCED BY Dox,"A549 [3]; A549, Doxorubicin 10-100 μg/ml, 24 hours",yes
same,Apo-2L sensitivity ENHANCED BY CHX,"A549 [3]; A549, cyclohexamide 50 μg/ml, 24 hours",yes
same,Apo-2L SENSITIVITY,"A549 [3]; A549 lung carcinoma, p53 WT, 24 h",++ (>70% death after 24 h with 100 ng/ml Apo-2L)
same,Apo-2L sensitivity ENHANCED BY 5-FU,MDA231,yes
same,Apo-2L sensitivity ENHANCED BY Dox,"MDA231; MDA231, Doxorubicin 10-100 μg/ml, 24 hours",yes
same,Apo-2L sensitivity ENHANCED BY CHX,"MDA231; MDA231, cyclohexamide 50 μg/ml, 24 hours",yes
same,Apo-2L SENSITIVITY,"MDA231; MDA231 breast carcinoma, p53 mut, 24 h",++ (>70% death after 24 h with 100 ng/ml Apo-2L)
same,Apo-2L sensitivity ENHANCED BY 5-FU,HCT116,yes
same,Apo-2L sensitivity ENHANCED BY Dox,"HCT116; HCT116, Doxorubicin 10-100 μg/ml, 24 hours",yes
same,Apo-2L sensitivity ENHANCED BY CHX,"HCT116; HCT116, cyclohexamide 50 μg/ml, 24 hours",yes
same,Apo-2L SENSITIVITY,"HCT116; HCT116 colon carcinoma, p53 mut, 24 h",++ (>70% death after 24 h with 100 ng/ml Apo-2L)
same,% apoptotic cells,Jurkat cells,77.0%
same,% apoptotic cells,Raji cells,73.4%
